This is an account of results in the nanobody polyreactivity screen of Harvey et al. (2022).

The data set in a line: yeast display, Sf9 membrane polyspecificity reagent, FACS + sequencing; frameworks hold sequencing errors. The method in brief: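 In a synthetic yeast display library (Saccharomyces cerevisiae BJ5465), nanobody expression was induced with galactose for 36–48 hours. FACS gates were set low and high (top ~1%) using anti-HA fluorescence for expression and streptavidin fluorescence for binding of the Sf9 membrane reagent. Each polyreactivity label is drawn from the gate of origin.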
In the case of “QVQLVESGGGLVQAGGSLRLSCAASGLTFQENGMGGYRQAPGKERELVASITTIGGSTYYADSVKGRFTISRDNAKNTVYLQMKSLKPEDTAVYYCAALSPIYATYGHDYWGQGTQVTVSS”, the “polyreactivity (PSR sort gate)” value is on record as “low polyreactivity”.

In the case of “QVQLVESGGGLVQAGGSLRLSCAASGLTFQSYVMGWYRPAPGKERELVAAISWSGTRTYFADSVKGRFTISRDNAKNTVYLQMYSLKPEDTAVYSCAADFYTWYEERYWSYNYWGQGTQVTVSS”, the “polyreactivity (PSR sort gate)” value is given as “high polyreactivity”.

In the case of “QVQLVESGGGLVQAGGSLRLSCAASGLTFQWYAMGWYRQAPGKERELVAAISSRGGSTYYADSVKGRFTISRDNAKNTVYLQMNSLKPVDTAVYYCAVYTIGYLAWYQKFDYWGQGTQVTVSS”, the “polyreactivity (PSR sort gate)” value is “high polyreactivity”.

As for “QVQLVESGGGLVQAGGSLRLSCAASGLTFRGNVMGWYRQAPGKERELVAAISRSGNTYYADSVKGRFTISRDNAKNTVYLQMNSLKPEDTAVYYCAAQSVRWYSSFKYYYWGQGTQVTVSS”, the “polyreactivity (PSR sort gate)” value is “high polyreactivity”.

Consider “QVQLVESGGGLVQAGGSLRLSCAASGLTFRKNAMGWYRQAPGKERELVAGISSGGSTYYADSVKGRFTISRDNAKNTVYLQMNSLKPEDTAVYYCGANALRTMYYWGQGTQVNVSS”, for which the “polyreactivity (PSR sort gate)” value is listed as “high polyreactivity”.

Regarding “QVQLVESGGGLVQAGGSLRLSCAASGLTFRLNAMGWYRQAPGKERELVAAITAIGDRTYYADSVKGRFTISRDNAKNTVYLQMKSLKQEDTAVYYCNVTPRRAQVRIGNYWGQGTQVTVSS”, the “polyreactivity (PSR sort gate)” value is “high polyreactivity”.

Turning to “QVQLVESGGGLVQAGGSLRLSCAASGLTFRPYTMGWYRQAPAKERELVAAISARGGRTYYADSVKGRFTISRDNAKNTVYLQMNSLKPEDTAVYYCATLETTGVNYWGQGTQVTVSS”, the “polyreactivity (PSR sort gate)” value is listed as “high polyreactivity”.

As to “QVQLVESGGGLVQAGGSLRLSCAASGLTFRQYAMGWYRQAPGKERELVAAITNGGRTYYADSVKGRFTISRDNAKNTVYLQMNSLKPEDTAVYYCAAYVPTFKDRSRWYGRKYDYWGQGTQVTVSS”, the “polyreactivity (PSR sort gate)” value was “low polyreactivity”.

On to “QVQLVESGGGLVQAGGSLRLSCAASGLTFRRYTMGWYRQAPGKERECVAAIRTSGGSTSYADSVKGRFTISRDNAKNTVYLQMNSLKPEDTAVYYCAADYGGTSYVRGTVGRKYDYWGQGTQVTVSS”, for which the “polyreactivity (PSR sort gate)” value is “high polyreactivity”.

Take “QVQLVESGGGLVQAGGSLRLSCAASGLTFRVNDMGWYRQAPGKERELVATISSGGSTYYADSVKGRFTISRDNAKNTVYLQMNSLKPEDTAVYYCATNSEGQESNSYYVWMGYWGQGTHVTVSS”: the “polyreactivity (PSR sort gate)” value was “low polyreactivity”.

Take “QVQLVESGGGLVQAGGSLRLSCAASGLTFRWYAMGWYRQAPGKEREWVAAISSGGRTYYADSVKGRFTISRDNAKNTVYLHMNSLKPEDTAVYYCNKRTLDYGFGSYGRDYWGQGTQVTVSS”: the “polyreactivity (PSR sort gate)” value is “high polyreactivity”.

For the sequence “QVQLVESGGGLVQAGGSLRLSCAASGLTFRYYAMGWDRPAPGKERELVAAITASVGSTYYADSVKGRFTISRDNAKNTVYLQMNSLNPEDTAVYYCNADLSYFFGPYWGLYGLDYWGQGTQVTVSS”, the “polyreactivity (PSR sort gate)” value is listed as “low polyreactivity”.

“QVQLVESGGGLVQAGGSLRLSCAASGLTFRYYAMGWYIQAPGKERELVATITATDGSTYYADSVKGRFTISRDNAKNTVYLQMNSLKPEDTAVYYRAKTYTEYSVTRSGARMDYWGQGTQVTVSS”: the “polyreactivity (PSR sort gate)” value is “low polyreactivity”.

In the case of “QVQLVESGGGLVQAGGSLRLSCAASGLTFRYYAMGWYRQAPGKERELVAAITRRGSTYYADSVKGRFTISRDNAKNTVYLQMNSLKPEDTAVYFCATVTGFHSSPLRDLDYWGHGTQVTVSS”, the “polyreactivity (PSR sort gate)” value is given as “high polyreactivity”.

In the case of “QVQLVESGGGLVQAGGSLRLSCAASGLTFSDYAMGWYRQAPGKERELVAGISSGGSTYYADSVKGRFTISRDNAENTVYLQMNSLKPEDTAVYYCAATRYNRWPIKFDYWGQGTQVTVSS”, the “polyreactivity (PSR sort gate)” value is on record as “high polyreactivity”.

Regarding “QVQLVESGGGLVQAGGSLRLSCAASGLTFSKYAMGWYRQAPGKERELVAAITRGDRTYYSDSVRGRFTISRDNAKNTVYLQMNRLKPEDTAVYYCAARQYYWGQGTQVTVSS”, the “polyreactivity (PSR sort gate)” value is “high polyreactivity”.

Regarding “QVQLVESGGGLVQAGGSLRLSCAASGLTFSPNAMGWYRQAPGKERELVAAITRSGSTTHYADSVKGRFTISRDNAKNTVYLQMNSLKPEDTAVYYCARRYYGPYDYWGQGTQVTVSS”, the “polyreactivity (PSR sort gate)” value is reported as “high polyreactivity”.

Turning to “QVQLVESGGGLVQAGGSLRLSCAASGLTFSQNAMGWNRQPPGKERELVGAITRSGSTTHYADSVKGRFTISRDKAKNTVYLQMNSLKPEDTAVYYCAAVAFQTRYYYWGQGTQVTLSS”, the “polyreactivity (PSR sort gate)” value was “high polyreactivity”.

Take “QVQLVESGGGLVQAGGSLRLSCAASGLTFSRYAMGWYRQAPGKERELVAAISSRSGSTFYADSVKGRFTISRDNAKNTVYLQMNSLKPEDTAVYYCAARRDWLGGYWGQGTQVTVSS”: the “polyreactivity (PSR sort gate)” value is reported as “high polyreactivity”.

Consider “QVQLVESGGGLVQAGGSLRLSCAASGLTFSSYAMGWYRQAPGKERELVAAISLSGGRTYYADSVKGRFTISRDNAKNTVYLQMNSLKPEDTAVYYCAARRPNLQHANDYWGQGTQVTVSS”, for which the “polyreactivity (PSR sort gate)” value is “high polyreactivity”.

“QVQLVESGGGLVQAGGSLRLSCAASGLTFSSYAMGWYRQAPGKERELVAAITRGGRTQYADSVKGRFTISRDNAKNTVYLQMNSLKPEDTAVYYCARSGNYYYWGQGTQVTVSS”: the “polyreactivity (PSR sort gate)” value was “high polyreactivity”.

In the case of “QVQLVESGGGLVQAGGSLRLSCAASGLTFSYNAMGWYIQAPGTERELVAAINWSGGSTYYADSVKGRFTISRDNAKNTVYLPMNSLKPEDTAVYYCAADIYSKGGRGLYYWGQGTQLTVSS”, the “polyreactivity (PSR sort gate)” value is “high polyreactivity”.

Take “QVQLVESGGGLVQAGGSLRLSCAASGLTFSYYAMGWYRQAPGKERELVAAISITGSTNYADSVKGRFTISRDNAKNTVYLQMNSLKPEDTAVYYCAARRSLSVLPYYYWGQGTQVTVSS”: the “polyreactivity (PSR sort gate)” value is “high polyreactivity”.

For the sequence “QVQLVESGGGLVQAGGSLRLSCAASGLTFSYYTMGCYRQAPGKERELVARISNRGTNTYYADSVKGRFTISRDNAKNTVYLQMNSLKPEDTAVYYCAKYYYTSIVGYDSWGQGTQVTVSS”, the “polyreactivity (PSR sort gate)” value is recorded as “low polyreactivity”.

With “QVQLVESGGGLVQAGGSLRLSCAASGLTFTGYAMGWYRQAPGKERELVAAISSRGGSTYYADSVKGRFTISRDTAKNTVYLQMNRLKPEDTAVYYCNAVVVVGRRDYWGQGTQVTVSS”, the “polyreactivity (PSR sort gate)” value was “high polyreactivity”.

Regarding “QVQLVESGGGLVQAGGSLRLSCAASGLTFTTYAMGWYRQAPGKERELVAAISRRGSRTYYADSVKGRFTISRDNAKNTVYLQMNSLKPEDTAVYYCNALTGSFKTYSFDYWGQGTQVTVSS”, the “polyreactivity (PSR sort gate)” value is reported as “high polyreactivity”.

Regarding “QVQLVESGGGLVQAGGSLRLSCAASGLTFVDNAMGWYRQAPGKERELVAAISFRDGSTYYADSVKGRFTISRDNAKNTVYLQMNSLKPEDTAVYYCAAVGQTHPTSPLSTKYDYWGQGTQVTVSS”, the “polyreactivity (PSR sort gate)” value was “low polyreactivity”.

For the sequence “QVQLVESGGGLVQAGGSLRLSCAASGLTFVDNAMGWYRQAPGKERELVAAISYNGGSTYYADSVKGRFTISRDNAKNTVYFQINSLKPEDTAVYYCAADISVGRYVDMDYWGQGTKVTVSS”, the “polyreactivity (PSR sort gate)” value is recorded as “low polyreactivity”.

Consider “QVQLVESGGGLVQAGGSLRLSCAASGLTFVDYAMGWYRQAPGKERELVAAISWSGGSTYYADSVKGRFTISRDIAKNTVYLQMNSLKPEDTAVYYCAAETQGWYPWGFYWGQCTQVTVSS”, for which the “polyreactivity (PSR sort gate)” value was “low polyreactivity”.

For “QVQLVESGGGLVQAGGSLRLSCAASGLTFVDYDMGWYRQAPGKERELVADINSGGYTYYADSVKGRFTISRDNAKNTVYLQMNSLKPEDTAVYYCAADDGWGYISSYDYEYWGQGTQVTVSS”, the “polyreactivity (PSR sort gate)” value is given as “high polyreactivity”.

Turning to “QVQLVESGGGLVQAGGSLRLSCAASGLTFVFYAMGWYRQAPGKERELVAAISRRGGRTYYADSVKGRYTISRDNAKNTVYVQMNSLKPEDTAVYYCNARVRSHRCNYWGQGTQVTVSS”, the “polyreactivity (PSR sort gate)” value is listed as “high polyreactivity”.

In the case of “QVQLVESGGGLVQAGGSLRLSCAASGLTFVGNAMGWYRQAPGKERELVASITIGTSTYYADSVKGRFTISRDNAKNTVYLQMNRLKPEDTAVYYCAAEEVFQVYGLALIYDYWGQGTQVTVSS”, the “polyreactivity (PSR sort gate)” value was “high polyreactivity”.

For the sequence “QVQLVESGGGLVQAGGSLRLSCAASGLTFVKNAMGLYRQAPRKERELVATISSGGSTNYADSVKGRFTISRDNAKNTVYLQMNSLKPEETAVYYCNKDYTGVLLWIWWDRYDYWGQGTQVTVSS”, the “polyreactivity (PSR sort gate)” value is recorded as “high polyreactivity”.

With “QVQLVESGGGLVQAGGSLRLSCAASGLTFVKYAMGWYRPAPGKERELVAAISRSGGRTYYADSVKGRFTISRDNAKNTVYLQMNSLKPEDTAVYYCNADHVRGNHGYDYWGQGTQVTVSS”, the “polyreactivity (PSR sort gate)” value was “high polyreactivity”.

As to “QVQLVESGGGLVQAGGSLRLSCAASGLTFVPNAMGWSRQAPGKERELVAGITSAGSTYYADSVKGRFTISRDNAKNTVYLQMNSLKPEDSAVYYCAKQFYRGFRYGYWGQGTQVTVSS”, the “polyreactivity (PSR sort gate)” value was “high polyreactivity”.

Regarding “QVQLVESGGGLVQAGGSLRLSCAASGLTFVPNARGWYRQAPGKERELVAASSNNGGRTYYADSVKGRFTISRDNAKKTVYLQMNSLKPEDTAVYYCAKYLSPGERHSYDYWGQGTQVTVSS”, the “polyreactivity (PSR sort gate)” value is “high polyreactivity”.

On to “QVQLVESGGGLVQAGGSLRLSCAASGLTFVQNAMGWYRQAPGKERELVAAISSRGGSTYYADSVKGRFTISRDNAKNTVYLQMNSLKPEDTAVYYCNTRSITKYDYWRRGYGYWGQGTQVTVSS”, for which the “polyreactivity (PSR sort gate)” value is “high polyreactivity”.

On to “QVQLVESGGGLVQAGGSLRLSCAASGLTFVVYAMGWYRPAPGKERELVAASDFSGGDTYYADSVKGRFTISRDNAKNTVYLQRNSLKPEDTADYYCAAEYYGPSYYIGFDYWGQGTQVTVSS”, for which the “polyreactivity (PSR sort gate)” value is listed as “high polyreactivity”.

For the sequence “QVQLVESGGGLVQAGGSLRLSCAASGLTFVWYAMGWYRQAPGKERELVAAIRGGGSTYYADSVKGRFTISRDNAKNTVYLQMNSLKPEDTAVYYCAAPYARCLFYLLHYPRFSYDYWGQGTQVTVSS”, the “polyreactivity (PSR sort gate)” value is listed as “high polyreactivity”.

For “QVQLVESGGGLVQAGGSLRLSCAASGLTFVYYDMGWYRQAPGKERELVADITDGSSTNYADSVKGRFTISRDNAKNTVYLQMYSLKREDTAVYYCAVDAVFQGSLGDYEYDYWGQGTQVTVSS”, the “polyreactivity (PSR sort gate)” value is reported as “low polyreactivity”.
